Experiment: label from the status in PepcDB records
For “MGFLQPRLPDIDLAEWSQGSRSQKIRPMAQHWAEVGFGTPVLLHLFYVAKILLYVLVGWLIVLTTKGIDGFTDAAAWYAEPIVFEKVVLYTMLFEVIGLGCGFGPLNNRFFPPMGSILYWMRFGTIRLPPWPDRVPWTRGTKRKPVDVALYALLVMMLLSALFTDGAGPIPELGTTVGLLPAWQIVLILLLLGVLGLRDKVIFLAARGEVYATLTVTFLFGRLNGIDMIVAAKLVFLVIWIGAATSKLNRHFPFVISTMMSNNPLFRPRFIKRMFFKKFPGDLRPGLLSRIVAHVSTVIEMCVPVVLFVAHGGWPTVVAATIMVCFHLGILTAIPMGVPLEWNVFMIFGVLSLFVGHACLGLADVKNPVPLAILIAVVAGIVIAGNVFPRKISFLAAMRYYAGNWDTTLWCIKPSAEDKINRGIVAIASMPAAQLERFYGKDRAQIPMYLGYAFRAMNSHGRALFTLAHRAMAGHDEDDYVITDGERVCSTAVGWNFGDGHLHNEQLIAAMQQRCGFQPGEVRVVLLDAQPIHRQTQEYRLVDAATGEFERGYVRVADMVNRQPWDDDVPVHVLPG”, the protein production was “failed”.
With “MGFSDAGIYLSDPNNLCQTELGFFHEPSLGFSDQSDPQNEFHITPPIYQELQDQDLEPKSQETNNCSRKEGATVKKEEEEEDDYCKTPTRSDQILSAMPRICPPAPRKPKRVPSRSLKVRNSYRSKRMIILNVSREIDCLFNPTSLCNKIKKARYI” the protein production was “failed”.
In the case of “MGFTTDKIRTIAVAGHGQSGKTSLVEHLLYVSGLIAKAESVDSGKTVTDYSQEEIDRKISIYSTLVNLQKDDKLINIWDTPGASDFIGEVIAAFRSSEAALIVLDGRSGVQIETIKYWRDLDRRNKPRLVFANKMDEARADFDNCIADVKKQFQVDVFPVSFPMGTGDNFKGVVDVLHGKAYKIEDGKEVETEIPAEYQDKYKDALEVLAGAAAEGDEELLVKFIDEGELSPEEISRGLTLAMADNRIVPLFAGSAINNSGLNSLLRFISEILPSPEGALERGVTKEGEEISVKLDSSAPLSAIVVKTSNDQFSGRLSYVKVITGTLSADSEVYNLREEKKERVGKIYKTLGKKLTEVKEIAAGDIGVLVKLTSTKTNDTLAASADVIPFVRLRTPEPIYSLAVSAIDKKNDDKVSEQLFKACEEDMTLSFAFNAETKQNVLSGMGDLHTSIVLDKVKNQSKIEIQTSIPRIAYRETIQRKSQAEYTHKKQSGGHGQFGRVVLAIEPLPRGEKYKFTNAVFGGAISKGYIPGVEKGVIEAMEKGVSAGYPVVDVAVTVLDGKEHPVDSSEMAFKIAARNAFKDAMRNAGPILLEPIMNLTVFVETSYLGDIMSDLSSRRGRILGQSSPASGIEEIRAQVPHKELLRYAIDLRSMTSGTGSFEMSFDHYDPISGKIADEIIAEAKAFMEEQEE”, the protein production is reported as “failed”.
For “MGGGPALNRDSSRHARPFISSPVKTLAIIPAFNEAQAIGPVLGDLPDGWVDEVVVVNNASTDATKANARAAGATVVDEPQQGYGAACLRGIAYAETRQPDVVVFLDGDYSDHPEELPRLVEPIAADEADFVVGSRIRGDAEPGALLPQAQVGNRFACSLMARLWGADYTDLGPFRAIRFRDLLALDMQDETFGWTIEMQIRALEAGLRVEEVPVSYRRGIGPSKITGTLSGTVKASAKILWTIGRMAATTHRRAPRLRERVDRARTDAPTPNPGGLEHHHHHH”, the protein production was “failed”.
With “MGGGRQILHTLEQDVYFSHAHRVEIPASVTAHLFYQHFGYRPKPGGIYPDDEGLYRLEKFPHESFH” the protein production was “failed”.
With “MGGHFWPPEPYTVFMWGSPWEADSPRVKLRGREKGRQTEGGAFPLVSSALSGDPRFFSPTTPPAEPIVVRLKEVRLQRDDFEILKVIGRGAFSEVAVVKMKQTGQVYAMKIMNKWDMLKRGEVSCFREERDVLVNGDRRWITQLHFAFQDENYLYLVMEYYVGGDLLTLLSKFGERIPAEMARFYLAEIVMAIDSVHRLGYVHRDIKPDNILLDRCGHIRLADFGSCLKLRADGTVRSLVAVGTPDYLSPEILQAV” the protein production was “failed”.
With “MGGIYRLSLKSTEATAERLSCDTRCNYEDRDLAYSPDGRWLAIARRFSNISEDIFIRDLASAHEKRLTQGLEDIRGLSWTPDSQALVFATEDSGSSNGFTLDINTAQIRSLDVEGMSYPSSVSAEGELVYHQYHRQFQMAYFSLGDKVPGSLFPLLYSGVSHRNPDYSPEAKRIVFVSSETGYNEIWTSDINGQKLEQLTQLKSRVAYPRWSPDGSRIAFIAPDDRNEGNRIFILDLTNKNITALASSYHNHGRPSWNWQGTAVLASTADGITEFYLDNRAPRVISSLSMAVGFAKSATELVFSRDGENGLWQINLTQPEHVEQLISTDAFRAGNNWVLTASGVYFKSSNGHEQLLNYWEASSQQVTSLLRVPRSSLSGFGSMTYIPEANRLVMTLDGFPQRDIILLKHKLLKLEHHHHHH” the protein production was “failed”.
With “MGGKLVSFIRSRLEIVQNIAAEDEGCKKAYYCMGSPLFALNAERMENNLVTLSGGISINKQLQKKGKPGVNVSPAFINEHNPEAIFISSFLSRPLNEFYELCQKYGIHADAVKKRQVYAVPAAWDFGNPRWILGLLYITDKLHPGKLEHHHHHH” the protein production was “failed”.
For “MGGNRQQEIASGCCLVAEQHDQVVAYASYQPTGLLGQPLLTYLCVAPAMRGQGIAKQLVETIQGQARGRMLLSSTEDWCLASQKIFTDLGWRKIGALAGVNKDGSTEYFYAVDLNH”, the protein production was “failed”.
For “MGGSNMKLDFSVAVHSILYLDAHRDSKVASRELAQSLHLNPVMIRNILSVLHKHGYLTGTVGKNGGYQLDLALADMNLGDLYDLTIPPTISYARFITGPSKTDEQADQSPIAANISETLTDLFTVADRQYRAYYHQFTMADLQADLNHHGTFLQHEQDSES”, the protein production was “not failed”.
For “MGHHHHHHSHESVVPARMAEMARCIRERDFPSFAQLTMKDSNQFHATCLDTFPPISYLNAISWRIIHLVHRFNAHHGDTKVAYTFDAGPNAVIFTLDDTVAEFVAAVWHGFPPGSNGD”, the protein production was “failed”.
With “MGHHHHHHSHGFNKFGGPRDQGSRHDSEQDNSDNNTIFVQGLGENVTIESVADYFKQIGIIKTNKKTGQPMINLYTDRETGKLKGEATVSFDDPPSAKAAIDWFDGKEFSGNPIKVSFAT” the protein production was “failed”.
For “MGHHHHHHSHHTTEAKNDLRVGGRFVSKMEAKDGSFGFDFGGTYNKVRLYEFISYIMDDDRSVEITFKPEKDKTYIVESFEAEKSNPIDLQQKGWQAILDNFKKYVEENKLRGREK”, the protein production was “failed”.
For “MGHHHHHHSHMANGTAGTKVALRKTKQAAEKISADKISKEALLECADLLSSALTEPVPNSQLVDTGHQLLDYCSGYVDCIPQTRNKFAFREAVSKLELSLQELQVSSAAAGVPGTNPVLNNLLSCVQEISDVVQR”, the protein production was “failed”.
With “MGHHHHHHSHMATGQDRVVALVDMDCFFVQVEQRQNPHLRNKPCAVVQYKSWKGGGIIAVSYEARAFGVTRSMWADDAKKLCPDLLLAQVRESRGKANLTKYREASVEVMEIMSRFAVIERASIDEAYVDLTSAVQERLQKLQGQPISADLLPSTYIEGLPQGPTTAEETVQKEGMRKQGLFQWLDSLQIDNLTSPDLQLTVGAVIVEEMRAAIERETGFQCSAGISHNKVLAKLACGLNKPNRQTLVSHGSVPQLFSQMPIRKIRSLGGKLGASVIEILGIEYMGELTQFTESQLQSHFGEKNGSWLYAMCRGIEHDPVKPRQLPKTIGCSKNFPGKTALATREQVQWWLLQLAQELEERLTKDRNDNDRVATQLVVSIRVQGDKRLSSLRRCCALTRYDAHKMSHDAFTVIKNCNTSGIQTEWSPPLTMLFLCATKFSASAP” the protein production was “failed”.
For “MGHHHHHHSHMDEQSVESIAEVFRCFICMEKLRDARLCPHCSKLCCFSCIRRWLTEQRAQCPHCRAPLQLRELVNCRWAEEVTQQLDTLQLCSLTKHEEN”, the protein production was “not failed”.
With “MGHHHHHHSHMGEIESYCNKELGPLPTKAPTLSKNVLDLFSLKGKVASVTGSSGGIGWAVAEAYAQAGADVAIWYNSHPADEKAEHLQKTYGVHSKAYKCNISDPKSVEETISQQEKDFGTIDVFVANAGVTWTQGPEIDVDNYDSWNKIISVDLNGVYYCSHNIGKIFKKNGKGSLIITSSISGKIVNIPQLQAPYNTAKAACTHLAKSLAIEWAPFARVNTISPGYIDTDITDFASKDMKAKWWQLTPLGREGLTQELVGGYLYLASNASTFTTGSDVVIDGGYTCP” the protein production was “failed”.
For “MGHHHHHHSHMGKKLLVLDVDYTLFDHRSCAETGVELMRPYLHEFLTSAYEDYDIVIWSATNMKWIEAKMKELGVSTNANYKITFMLDSAAMITVHTPRRGLIDVKPLGVIWGKFSEFYSKKNTIMFDDIGRNFLMNPQNGLKIRPFMKAHLNRDKDKELLKLTQYLKEIAKLDDFLDLNHKY”, the protein production was “failed”.
With “MGHHHHHHSHMGRCYNNIVIDASIEAVWQQIGNFHDMSWAKGVITSLVKVGPASGTEVGAKRILNDAIHETLVSLDSSNYTFTYSIDDGPDAIAKSAVDNYLGMVNLSESSTGVLVEWSSSFTSDNEKAVTEFCDP” the protein production was “failed”.
For “MGHHHHHHSHMIDSIRVEGFRGLKELELSSLRRINVIVGRNNSGKSTLLEALSLFLGSSDPGTFGNVLHEILIWRGWYGIQTVDDLFYNGGDSFSISSTGKTLEALNSKHSLEFKLNGEPFYKIDRESIRRLASQAVLLARFSPKENFEFLTPLTFRRFGYAESLYSYAYERKVVKDSIKVLNEAYPEVEGFSPLLKEDNWVLYVETKYGVYPYYLMGEGFKSAMIISFLSSLLRDGVLLIDSAEAFHHP”, the protein production was “failed”.
With “MGHHHHHHSHMIESGIWSRMSEMIRSSGHSHHCSPQEYRFLPPVGDDDLPGDLQSLSWLTAVDVPRLQQMANGRIDLGSSGVTHPHPGALAGTADLHVGAAPRPLLRRSQTAVVPRGVLGLSPIGNHRASAEQMNQFPAGGQASSGLQEMPQLYSPATQIPFPLPLGSQQCPPAGLYGSPFSARPSYPQAHGAMHASQEPHPKHYPKPIYSYSCLIAMALKNSKTGSLPVSEIYSFMKEHFPYFKTAPDGWKNSVRHNLSLNKCFEKVETKSSGSSRKGCLWALNLARIDKMEEEMHKWKRKDLAAIHRSMANPEELDKLISDRPESCRRPGKRGEPKAPMLTHATTVAMAHSCLAISQLPPKPLMTLSLQSVPLHHQLQPQAHLAPDSPAPAQTPPLHALPSLSPGPLPQPAMGRVPGDFLNINSDMNTEVDALDPSIMDFALQGNLWEEMKEDSFSLDTLEAFGDSPLGCDLGAPSLTPVSGNSDQSFPDVQVTGLYAAYSTAADGVAPSAANSAQYLGTPGNKPIALL” the protein production was “failed”.
With “MGHHHHHHSHMKPSGEDQAALAAGPWEECFQAAVQLALRAGQIIRKALTEEKRVSTKTSAADLVTETDHLVEDLIISELRERFPSHRFIAEEAAASGAKCVLTHSPTWIIDPIDGTCNFVHRFPTVAVSIGFAVRQELEFGVIYHCTEERLYTGRRGRGAFCNGQRLRVSGETDLSKALVLTEIGPKRDPATLKLFLSNMERLLHAKAHGVRVIGSSTLALCHLASGAADAYYQFGLHCWDLAAATVIIREAGGIVIDTSGGPLDLMACRVVAASTREMAMLIAQALQTINYGRDDEK” the protein production was “failed”.
With “MGHHHHHHSHMQDRRSVCIFLPNDESLNIIINVKILCHQLLVQVCDLLRLKDCHLFGLSVIQNNEHVYME” the protein production was “not failed”.
For “MGHHHHHHSHMSFVECPYHSPAERLVAEADEGGPSAITGMGLCFRCLLFSFSGRSGVEGGRVDLNVFGSLGLQPWIGSSRCWGGPCSSALRCGWFSSWPPPSKSAIPIGGGSRGAGRVSRWPPPHWLEAWRVSPRPL”, the protein production was “failed”.
For “MGHHHHHHSHMSIPSSQYGFVFNKQSGLKLRNDLPVHKPKAGQLLLKVDAVGLCHSDLHVIYEGLDCGDNYVMGHEIAGTVAAVGDDVINYKVGDRVACVGPNGCGGCKYCRGAIDNVCKNAFGDWFGLGYDGGYQQYLLVTRPRNLSRIPDNVSADVAAASTDAVLTPYHAIKMAQVSPTSNILLIGAGGLGGNAIQVAKAFGAKVTVLDKKKEARDQAKKLGADAVYETLPESISPGSFSACFDFVSVQATFDVCQKYVEPKGVIMPVGLGAPNLSFNLGDLALREIRILGSFWGTTNDLDDVLKLVSEGKVKPVVRSAKLKELPEYIEKLRNNAYEGRVVFNP”, the protein production was “not failed”.

— a protein production outcome set (Wang et al. 2014)
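Also: failed if final PepcDB status was selected cloned or expressed and not failed if soluble or beyond.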
